Test results from the DeepSol protein solubility set.

Assay: soluble on expression in E. coli; label from the status in PepcDB or PDB records

Soluble on expression in E. coli, not soluble:
MGSDKIHHHHHHMFSSEVIASFNELEMSIYNYICQHAEKVAYMRIRELADETHVSTATILRFCRKVDCDGFSEFKVKLKMHLEKEKKAPIKSSQHAIAEFFERAFRGDLEERISEAAALVADAENVIFIGIGSSGILAEYGARYFSALGKLSMYIKDFSYPIHSKLRQNSVTIALSVSGETHFTITQVNQLKQEGSKIISITNNKFSTIAKVADVNLSYYVSEEFFEKANITTQVPVVYILEAMARELYKLQG, MGSDKIHHHHHHMFVCEVRFECFADTTISAAQHAINHLLEAWRANGQILGREFAVSFHDGEFKARLMLPAQDSLANRHNSPWAKAALKGLTDAKILPPREKLLGQDINANESATHTPEWQLLYTSYVHMCSPVRSGDNLLPIPLYKLPATFNGDHKQLIRWQTEWQACDELQMASATKAEFAALDELCNVGSDLFRRGWDLRGRIEYLTKIPTYYYLYRVGGSSLQDELARPCPRCGSTGWRLDEPLLDMFHFRCEPCRIVSNLSWDYQ, MGSDKIHHHHHHMGDLSDIRVFLAVAQQRSFTAAARQLSMTPPTVTRSVSALEQSLGVQLLLRTTRQVSLTSAGAVYAARVEPLIRQFDQVRDDLREEQGDVAGLIRINAPLSLGQQLLPDIVSGFRAEHPQVSVSLSLTDRFIDIVSERFDLALRVSEAPRDRSTIWRKVCRVRRILVASPGYLAIFGTPETPDDLSRHGCIAYDEEAISETWELTNGGRTRKALAGKVLAANNGELIAKLVEDGQGLALLPHFIVGDALASARRAEAGPCRVGASGALADIVLSALRETADARCEILGLLRKICYPYAPAVKKRRTQVLFSRRKASFPAKGEHMLQEFDDALRHASFESDLNGLYAALLLSRSFGSSESRIRSLGRSLPDLSQQKSRFVWRRE, MGSDKIHHHHHHMGGIGLRRLGCGEAIQIGGDTRAGPVVQIESADHVQSGGDGKGLDTPSIGPDPKRVAVIGHHHVEGAIGVPVQIGKGLSGVHGIGMIQGFEYQFAARPLARRRAQRSDAVENGRHDAGIVDTQPGPPRQLVQPGHHFGAVVPPTARTIPGPGVHLVAIGGDDQRPLVARAAKQNKSAHSQKSVSSGLSARYNTTCVHRFHPVGAKHRKGYGTRLIMTAFDDREKAFEAKYRLDQEQEFKARIRRDKLLGLWAAEQMGISGDAAKTYALSVVDVEFDATDRDAGHKIVRDFIASGITLDEAAIRHQMAVLLEIAREQIVTEMGRP, MGSDKIHHHHHHMGISNIKQLYSKWKSLQPLKPEDLKRWNDKFKLEFNYNSNHLEGNTLTYGQTKLLLMFGETSGNASLKDYEEMKAHNVGLEMIKQEAQDKERPLTESFIRELNRTILVQDYWKNAKTPDGQDIRMQIKVGEYKSRPNSVLTATGEVFSYASPEETPAFMTSLVDWYNLEADKGILTPVELAALLHYRYIRIHPFEDGNGRIARLLVNFVLHRYGYPMIVIHSEDKSNYLNILHQCDVEAGLTPSDGANATLNDILPFVNYLSSCLIRSLTLAIKAAKGESIEEEGDFDKKIAMLQRRYSDKAIEKSSRSVEQARSAFFELAVYVEQKISGLQKLFDRTFITNTPTWNMARKINTPNPDEPIIQSHILYTKSKEYSFVEDIIRLSKKSQVDYFKLKYDAVTFHFNHCRYAGDNTFDFPFCIYIQYLSDGCEISCDITSDSVKLSYNPDVLAEEGKEYMDTACNELLKLLEEKMNDKSPEN, MGSDKIHHHHHHMGKLCSFLEKHKRSFPIGLSGNTGMGYILTGGISPLSRSKGLAIDQIIEIKGFWGNGKEFHLLRPNTKNELTNEWKALCGAAIFLGIITQVKLKTQPLRPLLSWTANLSFSELSECINQAESWPNSLSLQWIYGDDIFAHAIGEIKNTDDESVMIKLLEKLPFSRNRIINKFNNMKSLPNLSFGNNNNYNNSNHSEVLGLLGPAWQEKNKQVLKILKELINKRPNKSCYIASQQLGGLTHLNDLDTSFIHRDAIWKPWINGAWEAHNQAKRKRTLEWMTECWNNLEFICPGVHLAQIHPHLEWHKKELSSAFEDWLPNLEELKAIHDPRNIMPPLK, MGSDKIHHHHHHMGKPTGFMEYDRCEAASVEPKERIKNFNEFHVFLSKENQQKQAARCMDCGVPFCQSGMTIAGMTSGCPLHNLVPEWNDLVYTGNWEQAYNRLHKTNNFPEFTSRVCPALCEKACTCGHWGSPVSVRDNEHGIIETAYANGYAAPKPPKVRTGKKVAIIGSGPSGLAAADQLNQRGHDVTVYEREDRVGGLLMYGIPNMKLDKSIIDRKVNIMKEEGIHFVTGCDVGKDIKPAELYKKYDRVILCCGAKNPRDIKADGRDAKGIYFAVDYLTQNTKSLLNSNLTDGKFVSAKGKNVVIIGGGDTGNDCVGTAIRQGAKSVTQLEMMPCPPTERAANNPWPQWPKVLKTDYGQEEAIAVFGHDPRTYKTTVKEFHKDKNGNLKELTIVSLESKKDEKTGRFMMVPVEGSEKKLPAELVLIAAGFLGTESYVAKAFGVELNARTNVSTQEGHYATNVKNVYVAGDNHRGQSLVVWAIREGREAAREVDESLMGYSYLSVQ, MGSDKIHHHHHHMGLPMWANGDWRGSLYARHAPSSGMLHDYGAVFGSVEGNTTFYSGPPKADTVAQWARQAPADFRFCFKLPAQLTHDKRLVGIEDDFRTFCDALAPLHDRLGPTMVQLPRDFGARELPALAAFLEKWPSDMPCAVEVRHSEFFHKGDAEQQLNRLLITLGVDRVMLDVRPLFATPAGDDARLIKAQSEKPKRPLHVISTGRMPIVRFIGHCDMEINERLFAPWCERLALWIKQGKTPFLFVHTPDNRQAPQLARRFHARLSRCVTLPPLGDFPGERQSALF, MGSDKIHHHHHHMGTVLIHVCCAPDLLTTIFHVRDAEFFFYNPNIQPLSEYEKRREAVDKVANHFSLNVRYGEYSTEEIRKWYTAVKDYKDLGEGSKRCERCISFLLERTAQEARKRGHESFSTTLLASPRKNLPMIENIGKTIEEKYGVKFFFKNFRKGGAYQEGVRLSKELGIYRQNYCGCVFSLLERREKHAEISRKRGHM, MGSDKIHHHHHHMGTVPTPAGLAFFQQVQLALRHLDHAVDSAHSSRLSGHVTVGFSPSVAAVIGTHFLKLMRNRYPDIKVRLIEGLSGDLKALVNARQLDVAIIFSDDVDPQWAIQPLVKEQMFLISPKEVLNQYHLESCIDNQTITHSQLKELPLILPSQRHGLRLLLEQKIHQLKVAYEIDGLHLLMESISQLEMATIQPAGASLNSRQDLCLLRVVEPAIERINYLISLSEEELSPATLATKVVIRACVANLINEKRWPGAELINT, MGSDKIHHHHHHMGVVETAEWLHLYYGRPEKLCEKFTKYIPLPKERLYRFLISKGMYRPVMRGEREIKELEKKEVWKELRAEYEKLKDWLKGPDVPVFILLSDSYNRTVQEEYNGRAGLSMRHVIFLFVCGRNSVEELKVLLAHEYHHICRLHQIETKETEYTLLDTMIMEGLAEQAVTERYSEKNNAPWTTYLSKEEAIYYWKNVVHERISIKRGTREHDILLNGFHSYPKMLGYALGFHIVKDCVTLEGEDTLSLLPIDAKEILNKANTFHI, MGSDKIHHHHHHMHDVLIIGSGVIGMSIARHLSATHLDVAVIDRDVPGKHASYKAGGMLGAQNEFTEDSDLFQLAIESRAMFPQLSKSLLDETGIDIQFKNSGLIKIANEHDDISSIKRQYQFLNSQDRSVKQLSDDDLLQLTHGEVKPSYAAIHIPHDGQINAHHYTLALLESMKLRDIKRYESTEVTSIERHNGYYSVKTDQSSTIEAHKIIVAGGAWSSQLLTQYHLQRQVIGVKGEVILLENNDLSLTETLFMTNGCYIVPKQPNRFLIGATSEFNNYSVGTTDEGMDWLLRHAYHRVPQLKDSHILKKWSGVRPYTEKEMPVMDQIDDGLYVISGHYRNGILLSPIIGRDIANWLLSGIKPSRYSSFTVTRRNNHEVYH, MGSDKIHHHHHHMHFLDDSLLPENQEKLVIQVAPYGPQWLPGDSDDIPVTMDEQVQKAVDCYNAGATVLHVHVREADGKGSKRLSMFNEMLARLREAVPGMVLQVGGSISFAPENDNQAAKWLNDDTRHMLAELSPRPDQVTVAINTSQMNVMELMTEADVAGTSLTNPALQAAYRDMIVPSNPSWHVEHIKRLVANGIQPHFMLGNLTQLETVERLIRRGVYTGPLVLNYVAIGGGAAGLHPADMVEFARRTPDGAVLTVETLNRNVVPLNTMAIAMGLHVRVGIEDTLYGPDGKRATSVQQIEKMVNIARELNREIASGTDAHRIYQTGTRWSSTEETLNRLGMVPNRQPEQRGVPPRKAA
